From US20240391959A1 (Bicycle, published 2024)
Starred links: 1 amine or outer side, 2 acyl side, 3 side chain; linkers in the order of their positions; H or OH if unused. Positions of bridges follow the written chain, without caps; N, C: chain ends. No end group written: not given here. TATB = O=C(C[*:1])N1CN(C(=O)C[*:2])CN(C(=O)C[*:3])C1

Assays:
[1] = target: T1, Recombinant human transferrin receptor 1 (TfR1), His6-tagged, a.a. 89-760 (human, UniProt P02786 89-760); experiment: SPR, TfR1 on chip; Table 2, geomean of n = 5
T1 construct: range 89-760; SPR used ACRO Biosystems CD1-H5243 (His6, a.a. 89-760); also called Human TfR1; CD71; not shown: His6 tag

[2] = target: T2, Recombinant cynomolgus transferrin receptor 1 (TfR1), His6-tagged, a.a. 89-760 (cynomolgus, UniProt H9EXL1 89-760 (rhesus entry)); experiment: SPR, TfR1 on chip; Table 2, geomean of n = 2
T2 construct: range 89-760; Bought, ACRO Biosystems TFR-C524a; also called Cyno TfR1; Cynomolgus TfR1; not shown: His6 tag
T2 sequence (chain, as listed by the source): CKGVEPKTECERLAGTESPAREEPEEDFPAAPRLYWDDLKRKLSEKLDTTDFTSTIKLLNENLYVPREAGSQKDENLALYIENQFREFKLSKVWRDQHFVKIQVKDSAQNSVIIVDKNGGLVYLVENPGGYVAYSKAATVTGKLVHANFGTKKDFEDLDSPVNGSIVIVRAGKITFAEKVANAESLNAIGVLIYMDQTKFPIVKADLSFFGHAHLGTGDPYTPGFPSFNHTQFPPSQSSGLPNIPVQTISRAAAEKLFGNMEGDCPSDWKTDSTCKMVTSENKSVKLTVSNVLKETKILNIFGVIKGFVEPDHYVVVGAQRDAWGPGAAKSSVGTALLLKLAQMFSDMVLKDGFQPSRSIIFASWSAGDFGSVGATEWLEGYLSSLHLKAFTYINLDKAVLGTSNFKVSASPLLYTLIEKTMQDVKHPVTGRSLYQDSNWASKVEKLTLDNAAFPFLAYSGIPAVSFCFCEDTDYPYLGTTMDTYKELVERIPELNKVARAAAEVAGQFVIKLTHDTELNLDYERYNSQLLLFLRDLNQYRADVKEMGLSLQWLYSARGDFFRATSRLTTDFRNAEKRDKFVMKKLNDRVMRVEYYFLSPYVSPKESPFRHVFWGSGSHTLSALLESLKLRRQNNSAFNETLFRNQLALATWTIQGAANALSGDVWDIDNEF

T1 sequence (P02786 89-760 limits assumed): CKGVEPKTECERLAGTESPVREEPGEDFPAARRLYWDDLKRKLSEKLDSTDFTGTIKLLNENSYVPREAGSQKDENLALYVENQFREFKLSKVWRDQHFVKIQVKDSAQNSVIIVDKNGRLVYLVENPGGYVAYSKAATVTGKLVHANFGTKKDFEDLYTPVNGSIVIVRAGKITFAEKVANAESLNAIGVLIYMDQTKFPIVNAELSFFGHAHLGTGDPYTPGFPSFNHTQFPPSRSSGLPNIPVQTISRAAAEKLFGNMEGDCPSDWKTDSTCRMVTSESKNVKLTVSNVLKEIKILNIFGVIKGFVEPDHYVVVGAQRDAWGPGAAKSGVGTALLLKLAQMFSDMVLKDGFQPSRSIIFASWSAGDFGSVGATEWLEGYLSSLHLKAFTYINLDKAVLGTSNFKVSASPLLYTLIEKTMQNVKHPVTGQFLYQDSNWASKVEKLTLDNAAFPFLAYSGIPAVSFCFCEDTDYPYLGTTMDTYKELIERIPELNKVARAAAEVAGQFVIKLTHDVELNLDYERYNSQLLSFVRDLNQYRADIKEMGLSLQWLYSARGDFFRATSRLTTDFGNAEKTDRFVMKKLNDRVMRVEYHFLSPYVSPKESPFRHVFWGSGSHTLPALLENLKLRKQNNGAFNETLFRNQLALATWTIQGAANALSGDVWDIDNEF

Binder	Kd [1]	Kd [2]
ACSPDAHLGCISYCA (linker 2-10-14 via TATB) [BCY15468]	37.8 nM	
ACPPDSWQGCISYCA (Cys Ci, Cii, Ciii on TATB scaffold) [BCY13989]		3440 nM
